Test results reported in patent US20240182536A1 (MURAL ONCOLOGY, published 2024).
Substitutions are numbered along the chain they refer to. Names and notes keep the numbering of the source.

Legend:
[1] = biological target: T1, IL-18 receptors on HEK-Blue IL-18 reporter cells (UniProt Q13478 19-541; O95256 20-599, limits assumed); assay: cell-based or functional assay
T1 sequence (looked up) 1: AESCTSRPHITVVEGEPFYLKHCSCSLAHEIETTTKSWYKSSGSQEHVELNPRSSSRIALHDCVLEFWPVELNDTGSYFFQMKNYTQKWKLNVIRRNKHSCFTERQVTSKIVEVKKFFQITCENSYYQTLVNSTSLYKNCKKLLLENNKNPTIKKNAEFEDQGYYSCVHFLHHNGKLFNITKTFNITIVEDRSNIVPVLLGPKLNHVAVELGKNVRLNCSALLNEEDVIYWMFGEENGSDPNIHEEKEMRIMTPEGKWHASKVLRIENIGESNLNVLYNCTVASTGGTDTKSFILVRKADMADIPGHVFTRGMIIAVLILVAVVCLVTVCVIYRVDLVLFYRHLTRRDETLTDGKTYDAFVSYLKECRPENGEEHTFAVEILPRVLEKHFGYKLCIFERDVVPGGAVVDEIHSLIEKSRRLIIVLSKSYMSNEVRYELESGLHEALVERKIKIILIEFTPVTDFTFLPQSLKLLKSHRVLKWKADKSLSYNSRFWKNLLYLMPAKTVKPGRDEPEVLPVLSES
T1 sequence (looked up) 2: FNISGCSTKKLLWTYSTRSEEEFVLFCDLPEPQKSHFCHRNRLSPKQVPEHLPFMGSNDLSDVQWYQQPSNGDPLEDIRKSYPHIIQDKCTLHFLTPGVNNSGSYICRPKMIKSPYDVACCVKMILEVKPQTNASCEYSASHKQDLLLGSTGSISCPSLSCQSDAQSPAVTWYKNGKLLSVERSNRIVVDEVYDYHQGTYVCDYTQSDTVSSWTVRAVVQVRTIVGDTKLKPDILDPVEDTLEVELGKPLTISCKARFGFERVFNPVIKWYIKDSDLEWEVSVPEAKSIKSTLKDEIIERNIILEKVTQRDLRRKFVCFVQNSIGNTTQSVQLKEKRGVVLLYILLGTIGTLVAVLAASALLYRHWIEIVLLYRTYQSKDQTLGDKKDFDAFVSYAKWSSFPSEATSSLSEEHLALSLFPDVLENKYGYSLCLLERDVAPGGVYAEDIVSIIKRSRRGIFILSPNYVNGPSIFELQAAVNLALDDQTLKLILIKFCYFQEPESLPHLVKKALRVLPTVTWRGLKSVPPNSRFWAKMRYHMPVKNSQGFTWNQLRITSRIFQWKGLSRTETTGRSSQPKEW

[2] = biological target: T2, interleukin 18 binding protein (IL-18BP) (UniProt O95998 31-194); assay: cell-based or functional assay
T2 sequence (looked up): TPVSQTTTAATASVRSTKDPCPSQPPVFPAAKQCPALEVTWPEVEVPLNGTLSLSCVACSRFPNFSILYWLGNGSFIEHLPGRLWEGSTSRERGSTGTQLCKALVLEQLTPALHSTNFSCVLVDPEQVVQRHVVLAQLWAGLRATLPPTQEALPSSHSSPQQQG

B1: IL-18 variant K53H, S55M, T63S (ligand)
chain: YFGKLESKLSVIRNLNDQVLFIDQGNRPLFEDMTDSDMRDNAPRTIFIISMYHDMQPRGMAVSISVKSEKISTLSSENKIISFKEMNPPDNIKDTKSDIIFFQRSVPGHDNKMQFESSSYEGYFLASEKERDLFKLILKKEDELGDRSIMFTVQNED
[1]
  HEK-Blue activity, No BP, DF-10000: 0.13
  HEK-Blue activity, No BP, DF-100,000: 0.1
  HEK-Blue activity, No BP, DF-1,000,000: 0.09
[2]
  HEK-Blue activity, +100 nM BP, DF-10000: 0.18
  HEK-Blue activity, +100 nM BP, DF-100,000: 0.12
  HEK-Blue activity, +100 nM BP, DF-1,000,000: 0.11
  Ratio (-BP/+BP), DF-10000: 0.72
  Ratio (-BP/+BP), DF-100,000: 0.83
  Ratio (-BP/+BP), DF-1,000,000: 0.83

B2: IL-18 variant K53D, S55L (ligand)
chain: B1 chain with H53D, M55L, S63T
[1]
  HEK-Blue activity, No BP, DF-10000: 0.11
  HEK-Blue activity, No BP, DF-100,000: 0.09
  HEK-Blue activity, No BP, DF-1,000,000: 0.09
[2]
  HEK-Blue activity, +100 nM BP, DF-10000: 0.1
  HEK-Blue activity, +100 nM BP, DF-100,000: 0.09
  HEK-Blue activity, +100 nM BP, DF-1,000,000: 0.09
  Ratio (-BP/+BP), DF-10000: 1.02
  Ratio (-BP/+BP), DF-100,000: 1.03
  Ratio (-BP/+BP), DF-1,000,000: 1.01

B3: IL-18 variant K53G, S55V, R104Y, H109N (ligand)
chain: B1 chain with H53G, M55V, S63T, R104Y, H109N
[1]
  HEK-Blue activity, No BP, DF-10000: 0.13
  HEK-Blue activity, No BP, DF-100,000: 0.12
  HEK-Blue activity, No BP, DF-1,000,000: 0.1
[2]
  HEK-Blue activity, +100 nM BP, DF-10000: 0.11
  HEK-Blue activity, +100 nM BP, DF-100,000: 0.14
  HEK-Blue activity, +100 nM BP, DF-1,000,000: 0.1
  Ratio (-BP/+BP), DF-10000: 1.17
  Ratio (-BP/+BP), DF-100,000: 0.9
  Ratio (-BP/+BP), DF-1,000,000: 1.02

B4: IL-18 variant K53L, S55G (ligand)
chain: B1 chain with H53L, M55G, S63T
[1]
  HEK-Blue activity, No BP, DF-10000: 0.12
  HEK-Blue activity, No BP, DF-100,000: 0.1
  HEK-Blue activity, No BP, DF-1,000,000: 0.09
[2]
  HEK-Blue activity, +100 nM BP, DF-10000: 0.14
  HEK-Blue activity, +100 nM BP, DF-100,000: 0.11
  HEK-Blue activity, +100 nM BP, DF-1,000,000: 0.11
  Ratio (-BP/+BP), DF-10000: 0.87
  Ratio (-BP/+BP), DF-100,000: 0.92
  Ratio (-BP/+BP), DF-1,000,000: 0.89

B5: IL-18 variant K53H, S55Y, Q56H (ligand)
chain: B1 chain with M55Y, Q56H, S63T
[1]
  HEK-Blue activity, No BP, DF-10000: 0.12
  HEK-Blue activity, No BP, DF-100,000: 0.1
  HEK-Blue activity, No BP, DF-1,000,000: 0.09
[2]
  HEK-Blue activity, +100 nM BP, DF-10000: 0.12
  HEK-Blue activity, +100 nM BP, DF-100,000: 0.09
  HEK-Blue activity, +100 nM BP, DF-1,000,000: 0.09
  Ratio (-BP/+BP), DF-10000: 1.05
  Ratio (-BP/+BP), DF-100,000: 1.03
  Ratio (-BP/+BP), DF-1,000,000: 0.96

B6: IL-18 variant L15I, K53H, S55M (ligand)
chain: B1 chain with L15I, S63T
[1]
  HEK-Blue activity, No BP, DF-10000: 0.11
  HEK-Blue activity, No BP, DF-100,000: 0.1
  HEK-Blue activity, No BP, DF-1,000,000: 0.09
[2]
  HEK-Blue activity, +100 nM BP, DF-10000: 0.12
  HEK-Blue activity, +100 nM BP, DF-100,000: 0.1
  HEK-Blue activity, +100 nM BP, DF-1,000,000: 0.08
  Ratio (-BP/+BP), DF-10000: 0.9
  Ratio (-BP/+BP), DF-100,000: 0.99
  Ratio (-BP/+BP), DF-1,000,000: 1.02

B7: IL-18 variant T34N, S36Y, D37E, D40Q, N41Q, K53D, S55D (ligand)
chain: B1 chain with T34N, S36Y, D37E, D40Q, N41Q, H53D, M55D, S63T
[1]
  HEK-Blue activity, No BP, DF-10000: 0.11
  HEK-Blue activity, No BP, DF-100,000: 0.09
  HEK-Blue activity, No BP, DF-1,000,000: 0.09
[2]
  HEK-Blue activity, +100 nM BP, DF-10000: 0.1
  HEK-Blue activity, +100 nM BP, DF-100,000: 0.1
  HEK-Blue activity, +100 nM BP, DF-1,000,000: 0.09
  Ratio (-BP/+BP), DF-10000: 1.11
  Ratio (-BP/+BP), DF-100,000: 0.96
  Ratio (-BP/+BP), DF-1,000,000: 1

B8: IL-18 variant T34N, S36Y, D40H, N41T, K53G, S55Y (ligand)
chain: B1 chain with T34N, S36Y, D40H, N41T, H53G, M55Y, S63T
[1]
  HEK-Blue activity, No BP, DF-10000: 0.12
  HEK-Blue activity, No BP, DF-100,000: 0.1
  HEK-Blue activity, No BP, DF-1,000,000: 0.09
[2]
  HEK-Blue activity, +100 nM BP, DF-10000: 0.11
  HEK-Blue activity, +100 nM BP, DF-100,000: 0.09
  HEK-Blue activity, +100 nM BP, DF-1,000,000: 0.09
  Ratio (-BP/+BP), DF-10000: 1.08
  Ratio (-BP/+BP), DF-100,000: 1.02
  Ratio (-BP/+BP), DF-1,000,000: 0.97

B9: IL-18 variant K53N, S55H, H109F (ligand)
chain: B1 chain with H53N, M55H, S63T, H109F
[1]
  HEK-Blue activity, No BP, DF-10000: 0.13
  HEK-Blue activity, No BP, DF-100,000: 0.1
  HEK-Blue activity, No BP, DF-1,000,000: 0.1
[2]
  HEK-Blue activity, +100 nM BP, DF-10000: 0.11
  HEK-Blue activity, +100 nM BP, DF-100,000: 0.09
  HEK-Blue activity, +100 nM BP, DF-1,000,000: 0.09
  Ratio (-BP/+BP), DF-10000: 1.17
  Ratio (-BP/+BP), DF-100,000: 1.06
  Ratio (-BP/+BP), DF-1,000,000: 1.17

B10: IL-18 variant K53D, S55N, H109I (ligand)
chain: B1 chain with H53D, M55N, S63T, H109I
[1]
  HEK-Blue activity, No BP, DF-10000: 0.13
  HEK-Blue activity, No BP, DF-100,000: 0.12
  HEK-Blue activity, No BP, DF-1,000,000: 0.09
[2]
  HEK-Blue activity, +100 nM BP, DF-10000: 0.1
  HEK-Blue activity, +100 nM BP, DF-100,000: 0.09
  HEK-Blue activity, +100 nM BP, DF-1,000,000: 0.09
  Ratio (-BP/+BP), DF-10000: 1.28
  Ratio (-BP/+BP), DF-100,000: 1.42
  Ratio (-BP/+BP), DF-1,000,000: 0.99

B11: IL-18 variant K53H, S55R (ligand)
chain: B1 chain with M55R, S63T
[1]
  HEK-Blue activity, No BP, DF-10000: 0.12
  HEK-Blue activity, No BP, DF-100,000: 0.1
  HEK-Blue activity, No BP, DF-1,000,000: 0.09
[2]
  HEK-Blue activity, +100 nM BP, DF-10000: 0.12
  HEK-Blue activity, +100 nM BP, DF-100,000: 0.09
  HEK-Blue activity, +100 nM BP, DF-1,000,000: 0.09
  Ratio (-BP/+BP), DF-10000: 0.97
  Ratio (-BP/+BP), DF-100,000: 1.09
  Ratio (-BP/+BP), DF-1,000,000: 1

B12: IL-18 variant K53H, S55H, N87D, H109I (ligand)
chain: B1 chain with M55H, S63T, N87D, H109I
[1]
  HEK-Blue activity, No BP, DF-10000: 0.11
  HEK-Blue activity, No BP, DF-100,000: 0.1
  HEK-Blue activity, No BP, DF-1,000,000: 0.09
[2]
  HEK-Blue activity, +100 nM BP, DF-10000: 0.1
  HEK-Blue activity, +100 nM BP, DF-100,000: 0.1
  HEK-Blue activity, +100 nM BP, DF-1,000,000: 0.1
  Ratio (-BP/+BP), DF-10000: 1.1
  Ratio (-BP/+BP), DF-100,000: 0.96
  Ratio (-BP/+BP), DF-1,000,000: 0.88

B13: IL-18 variant T34S, S36L, D37E, D40Y, N41M, K53T, S55K, P107K, H109Q (ligand)
chain: B1 chain with T34S, S36L, D37E, D40Y, N41M, H53T, M55K, S63T, P107K, H109Q
[1]
  HEK-Blue activity, No BP, DF-10000: 0.11
  HEK-Blue activity, No BP, DF-100,000: 0.1
  HEK-Blue activity, No BP, DF-1,000,000: 0.09
[2]
  HEK-Blue activity, +100 nM BP, DF-10000: 0.1
  HEK-Blue activity, +100 nM BP, DF-100,000: 0.1
  HEK-Blue activity, +100 nM BP, DF-1,000,000: 0.09
  Ratio (-BP/+BP), DF-10000: 1.11
  Ratio (-BP/+BP), DF-100,000: 0.98
  Ratio (-BP/+BP), DF-1,000,000: 0.98
